Test results taken from PMC12137173, “Cdc48 plays a crucial role in redox homeostasis through dynamic reshaping of its interactome during early stationary phase” (Redox Biology, 2025).

Target: T1, Shp1/Ubx1 (purified) (S. cerevisiae, UniProt P34223 1-423)
T1 construct: Shp1/Ubx1, UBX-family cofactor of Cdc48, S. cerevisiae; also called Shp1/Uxb1; source: purified
T1 sequence (looked up): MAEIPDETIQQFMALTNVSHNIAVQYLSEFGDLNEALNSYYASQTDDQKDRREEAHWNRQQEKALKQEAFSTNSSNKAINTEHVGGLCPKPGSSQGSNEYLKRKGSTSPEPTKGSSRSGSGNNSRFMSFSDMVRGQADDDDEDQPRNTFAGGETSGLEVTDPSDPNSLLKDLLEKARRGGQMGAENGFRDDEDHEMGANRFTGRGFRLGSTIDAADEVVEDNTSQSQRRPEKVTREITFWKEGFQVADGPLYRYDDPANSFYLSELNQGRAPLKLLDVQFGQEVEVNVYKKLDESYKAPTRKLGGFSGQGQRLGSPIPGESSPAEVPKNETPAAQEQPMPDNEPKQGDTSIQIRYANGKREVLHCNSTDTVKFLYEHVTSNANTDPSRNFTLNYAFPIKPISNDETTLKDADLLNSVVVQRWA
Assay: ITC; 25 °C; 220 μM Shp1 injected into 16 μM Cdc48-NTD (WT or C115S); 2 μL injections, 150 s spacing; Malvern MicroCal PEAQ-ITC
Conditions: both partners purified

- Kd: 14.2 µM
B1: Cdc48-NTD-WT (domain or fragment)
chain: MGEEHKPLLDASGVDPREEDKTATAILRRKKKDNMLLVDDAINDDNSVIAINSNTMDKLELFRGDTVLVKGKKRKDTVLIVLIDDELEDGACRINRVVRNNLRIRLGDLVTIHPCPDIKYATRISVLPIADTIEGITGNLFDVFLKPYFVEAYRPVRKGDHFVVRGGMRQVEFKVVDVEPEEYAVVAQDTIIHWEGEPINREDEENNMN
modifications: Construct limits are not printed. Taken by convention as the equivalent of human p97 N domain 1-199, using the +10 offset shown by Cys209 hVCP = Cys219 Cdc48.
